Measurements taken from US20040002450A1, “Y17 - isolated molecules comprising epitopes containing sulfated moieties, antibodies to such epitopes, and uses thereof” (priority 2000, published 2004).

Experiments:
[1] = test system: platelet-rich-plasma (PRP); test: Ristocetin-induced aggregation of platelet-rich-plasma after scFv preincubation; assay type: cell-based, human; settings: for % inhibition: ristocetin
Experimental: The effect of Y1 (scFv) on aggregation of platelet-rich-plasma (PRP) was tested at various concentrations of Y1. PRP was pre-incubated with Y1 scFv, Y17 scFv, or a control sTM-1cFv for 4 min at 37° C. before being exposed to ristocetin, an inducer of platelet agglutination and aggregation. A reversible inhibitory effect was observed when scFv was added to PRP prior to the addition of ristocetin, and it was dose dependent.
Blood was collected into a tube containing 3.8% sodium citrate. Platelet-rich plasma was prepared by centrifugation at 250×g for 10 minutes.
For platelet aggregation studies, platelet rich plasma (PRP) and washed platelets were stirred at 500 rpm at 37° C. in whole blood Lumiaggregometer (Chronolog, Havertown, Pa.). The difference in light transmission through the platelet suspension and suspending medium was taken as 100% aggregation. The effect of Y1 on platelet aggregation was evaluated by addition of different concentration of Y1 before the addition of agonist, and the effect was recorded for four minutes.

[2] = test system: Jurkat cells; test: FACS binding to Jurkat cells; set-up: species or system human; settings: 1 μg scFv-Y1 versus 5 ng IgG-Y1; two-step staining
From the text: The present invention is directed to Y1 and Y17 multimers prepared by any known method in the art. A preferred method of forming multimers, and especially dimers, employs the use of cysteine residues to form disulfide bonds between two monomers. In this embodiment, dimers are formed by adding a cysteine on the carboxyl terminus of the scFvs (referred to as Y1-cys scFv or Y1 dimer) in order to facilitate dimer formation. After the DNA construct was made (See Example 2D and 6D) and used for transfection, Y1 dimers were expressed in a production vector and refolded in vitro. The protein was analyzed by SDS-PAGE, HPLC, and FACS. […] Two peaks were detected by SDS-PAGE (non-reduced) and by gel filtration. The peaks were collected separately and analyzed by FACS. […] Conditions for dimer refolding were determined, and material comprising >90% dimers (mg quantities) was produced after subsequent dialysis, chromatographic, and gel filtration steps. […]
FACS analysis was performed on Jurkat cells using a “three step staining procedure.” First, crude extracts or purified unlabeled scFv are stained, then mouse anti-myc antibodies, and finally, FITC— or PE-conjugated anti-mouse antibodies. […] After the final staining step, cells were fixed by re-suspending in PBS, 1% BSA, 2% formaldehyde, and then read by FACS (Becton-Dickinson).

B1: Y1 scFv: fully human scFv clone binding platelets and myelogenous leukemia cells; SEQ ID NO: 25, heavy chain CDR3 SEQ ID NO: 8 (protein, listed as Homo sapiens)
scFv: MKYLLPTAAAGLLLLAAQPAMAEVQLVESGGGVVRPGGSLRLSCAASGFTFDDYGMSWVRQAPGKGLEWVSGINWNGGSTGYADSVKGRFTISRDNAKNSLYLQMNSLRAEDTAVYYCARMRAPVIWGQGTLVTVSRGGGGSGGGGSGGGGSSELTQDPAVSVALGQTVRITCQGDSLRSYYASWYQQKPGQAPVLVIYGKNNRPSGIPDRFSGSSSGNTASLTITGAQAEDEADYYCNSRDSSGNHVVFGGGTKLTVLGAAAEQKLISEEDLNGAA
[1]; 25 μg/ml
  effect on ristocetin-induced platelet aggregation in PRP (in words): no significant inhibition
[1]; scFv 25 μg/ml, PRP
  % inhibition: 13%
[1]; scFv 25 μg/ml, PRP, ristocetin = 100%
  % aggregation: 87%
[1]; scFv 50 μg/ml, PRP, first 4 minutes
  % inhibition: 80%
[2]
  fold more molecules needed for a level of detection similar to IgG-Y1: approximately 10^3 fold
